# B1: Uncharacterized protein TRE1 (Saccharomyces cerevisiae), Q08919 (parent)
# chain: MVNTRGYTTLPNVEEPANNSQDELNSQDFEQAIGMPSEPPVYVEEMGMEEPQAPEAFSEKVQRFRMCFENNVVIPVKKNVVDPLAQMISLASEKFDLFLSKIGNVMVMRRIFYIMMMSIIAALIIASDRLPNGKARGSNGSFSDHDLLLQYARKSIDLSKIERDLEYISSMPHMSGTSGDAAIRHYIKESFDKNGIRLAGEEEFMAYSNYPGNVSLRVYSKDDTEGFDIPLNEENFNPMSHNGQLNNIPVIYANKASLDDMASMQDQGLLNGDFILLVHYGDYVFQQMLTAQEYGAKAIIFISEPYQDNKDVIQMKSVALPQYGTGDALTPEWEGSIRDPIDATEAKCLPKIPSIPISANQGDKILAILSDTGVKFSNNLFSGSLNDCRLDLLVQTAIRERHPVHDIVGKIEGSEQAGRAIVIAAPRNSASYGTMYPSFGTVVLLSLIQLYQEMVYKFDWKPLRNIYFISFGGSEFNEAGATELMEKRTEALKSEIYTIIDVGQIGIWDDSNNLEIQCHPLLVDLFQKNMTSRKFNVKVDNVHQFGDWTPYLAQGIPVAIISSPGVMNREHPIYTVEDKFDFIKDKLRDKKKGEVLSEIMLYLVEKSLELIDDPFIPFSISNYVDFLSTTLKDLQKECPDTVNFDEVFLGTTLWENTKLQFEKWKSEWTELMYGAGTYIEPTIIAINRWSWNYLLSLIGVTQCLEEGLMDRTFYKNVIFGPKLWVDKGDPLRSWTFPEIRDTIAIKDWSSVQVQANTLGTILQNTARYFLENKNLHGINTNEF
# Variants of: B1
# Details: with rsp5_yeast RSP5, P39940
# rsp5_yeast RSP5, P39940, sequence (P39940 whole entry): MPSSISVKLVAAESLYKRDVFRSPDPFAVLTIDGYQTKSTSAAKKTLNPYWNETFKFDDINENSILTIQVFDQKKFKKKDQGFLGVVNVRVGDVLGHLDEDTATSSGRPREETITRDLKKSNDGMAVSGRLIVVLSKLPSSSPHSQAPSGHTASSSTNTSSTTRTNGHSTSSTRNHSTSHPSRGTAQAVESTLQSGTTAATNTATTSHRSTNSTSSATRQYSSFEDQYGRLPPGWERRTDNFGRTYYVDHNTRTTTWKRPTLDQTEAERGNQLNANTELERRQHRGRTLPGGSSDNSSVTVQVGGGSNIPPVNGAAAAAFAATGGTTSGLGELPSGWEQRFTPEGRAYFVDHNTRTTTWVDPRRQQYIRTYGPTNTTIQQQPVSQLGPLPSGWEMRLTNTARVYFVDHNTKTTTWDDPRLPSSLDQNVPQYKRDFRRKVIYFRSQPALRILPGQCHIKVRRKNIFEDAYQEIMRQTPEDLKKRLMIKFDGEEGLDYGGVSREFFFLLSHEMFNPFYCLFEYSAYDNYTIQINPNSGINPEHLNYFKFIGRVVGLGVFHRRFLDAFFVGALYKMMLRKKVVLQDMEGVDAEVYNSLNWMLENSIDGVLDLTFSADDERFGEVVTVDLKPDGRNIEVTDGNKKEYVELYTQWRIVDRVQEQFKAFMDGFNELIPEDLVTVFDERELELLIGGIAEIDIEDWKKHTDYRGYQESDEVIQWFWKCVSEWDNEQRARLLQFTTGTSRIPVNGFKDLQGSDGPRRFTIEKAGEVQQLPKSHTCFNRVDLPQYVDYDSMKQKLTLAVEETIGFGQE
row,effect of a mutation on the interaction,Variant
1,disrupting interaction,V41A
2,disrupting interaction,Y42G

# Variants of: B1
# Details: with rsp5_yeast RSP5, P39940
# Remark: another data set of the same source
row,effect of a mutation on the interaction,Variant
1,decreasing interaction,Y42G
